In PMC1277818, “Substrate specificity analysis of protein kinase complex Dbf2-Mob1 by peptide library and proteome array screening” (BMC Biochemistry, 2005):

Target: T1, FHHDbf2-H6Mob1TM9 (Saccharomyces cerevisiae, UniProt P22204+P40484)
T1 construct: made in house; host or cells: Hi5 insect cells (baculovirus)
T1 sequence (P22204 1-572): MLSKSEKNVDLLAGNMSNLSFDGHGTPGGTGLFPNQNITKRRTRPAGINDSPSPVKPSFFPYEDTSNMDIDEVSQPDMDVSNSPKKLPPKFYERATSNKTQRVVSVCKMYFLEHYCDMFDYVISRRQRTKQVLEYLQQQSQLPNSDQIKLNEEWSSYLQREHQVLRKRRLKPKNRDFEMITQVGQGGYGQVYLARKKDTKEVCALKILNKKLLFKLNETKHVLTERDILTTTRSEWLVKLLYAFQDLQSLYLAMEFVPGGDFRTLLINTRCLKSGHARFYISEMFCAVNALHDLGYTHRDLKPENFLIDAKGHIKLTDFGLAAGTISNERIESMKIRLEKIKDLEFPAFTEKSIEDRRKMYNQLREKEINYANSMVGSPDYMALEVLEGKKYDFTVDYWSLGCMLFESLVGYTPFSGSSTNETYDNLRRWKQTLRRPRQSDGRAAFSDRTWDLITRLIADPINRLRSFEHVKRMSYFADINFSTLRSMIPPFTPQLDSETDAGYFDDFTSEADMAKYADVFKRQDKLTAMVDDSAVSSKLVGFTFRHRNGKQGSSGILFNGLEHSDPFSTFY
T1 sequence (P40484 1-314 partner): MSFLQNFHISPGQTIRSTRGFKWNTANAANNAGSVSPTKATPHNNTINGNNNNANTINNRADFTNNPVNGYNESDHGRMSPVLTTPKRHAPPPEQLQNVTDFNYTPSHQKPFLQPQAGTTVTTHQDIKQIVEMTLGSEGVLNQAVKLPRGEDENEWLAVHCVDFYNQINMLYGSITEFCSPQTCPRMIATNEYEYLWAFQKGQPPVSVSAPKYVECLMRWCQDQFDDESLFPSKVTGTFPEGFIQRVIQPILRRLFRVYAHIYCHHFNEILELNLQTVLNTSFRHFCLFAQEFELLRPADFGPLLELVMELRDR
Assay: Yeast proteome chip assay
Type: biochemical
Settings: [γ-33P]ATP, chips in duplicate
Description: The relatively low sequence complexity of the Dbf2 phosphorylation motif diminished the power of using genome-wide bioinformatics screens to identify putative substrates. Accordingly, we carried out a proteome array screen to identify putative yeast substrates. […] After taking into account the proteins phosphorylated in the negative controls, 67 proteins were determined to be putative Dbf2-Mob1 substrates (Table 3).
Yeast proteome microarrays were prepared as previously described. Overexpressed GST-tagged yeast proteins were purified from ~4,400 yeast strains and spotted on slides. To determine the optimal amount of kinase to use for probing proteome chips, we performed trial assays as described (J. Ptacek et al., submitted). […] The full proteome array was probed with 4 μl ^FHHDbf2-^H6Mob1^TM9 in 200 μl of DKB supplemented with [γ-^33P]ATP. As a control, ^FHHDbf2(N305A)-^H6Mob1^TM9 was used to probe the proteome array. […] To control for autophosphorylated proteins, the proteome array was probed with 200 μl of DKB supplemented with [γ-^33P]ATP. Proteome chips were assayed in duplicate in each case. Data analysis was performed as described (J. Ptacek et al., submitted). Briefly, signals were analyzed by a computer algorithm designed to normalize background and identify signals as positive if 3 of 4 spots (each protein is spotted twice on each slide and each kinase or control was tested on 2 slides) were 2 standard deviations above background and the fourth spot was 1.5 standard deviations above background.

[1] = Table 3, GST fusion proteins on proteome chip, computer analysis
[2] = Table 4, the 25 proteins with highest signal relative to protein amount

Substance	Slide Signal (after normalization) [1]	Slide Signal (after normalization) [2]
YDL220C: GST fusion yeast protein on proteome chip	1.0274	1.0274
YDR171W: GST fusion yeast protein on proteome chip	0.442	–
YMR229C: GST fusion yeast protein on proteome chip	2.6954	2.6954
YNL007C: GST fusion yeast protein on proteome chip	0.2239	–
